Test results as given in paper PMC5686067.
Each block holds one substance with its values, some of them ahead of it.

Legend:
[1] = target: sNlpI (soluble NlpI without its lipoprotein signal peptide) (E. coli) (UniProt P0AFB1); test: AUC; sedimentation velocity, absorbance optics, 20 mM Tris-HCl pH 8.0, 100 mM NaCl, 2 mM DTT, 20 °C, c(s) model in Sedfit
[2] = target: sNlpI (soluble NlpI without its lipoprotein signal peptide) (E. coli) (UniProt P0AFB1); test: SEC-MALS; ENrich SEC 650 column, 20 mM Tris-HCl pH 7.5, 200 mM NaCl, 2 mM DTT, 0.02% NaN3, 240-360 µg protein injected
[3] = target: sMepS-6×His-C (soluble MepS without its lipoprotein signal peptide, C-terminal His-tag) (E. coli) (UniProt P0AFV4); test: ITC; iTC200, 20 °C, 20 mM HEPES pH 7.5, 300 mM NaCl, 2 mM 2-mercaptoethanol; 23 µM sMepS or Prc in the cell, 230 µM sNlpI (alone or with equimolar Prc) in the syringe; one binding site model
[4] = target: Prc (full-length, C-terminal His-tag) (E. coli) (UniProt P23865)
Prc (full-length, C-terminal His-tag) (E. coli), sequence (P23865 23-682 limits assumed): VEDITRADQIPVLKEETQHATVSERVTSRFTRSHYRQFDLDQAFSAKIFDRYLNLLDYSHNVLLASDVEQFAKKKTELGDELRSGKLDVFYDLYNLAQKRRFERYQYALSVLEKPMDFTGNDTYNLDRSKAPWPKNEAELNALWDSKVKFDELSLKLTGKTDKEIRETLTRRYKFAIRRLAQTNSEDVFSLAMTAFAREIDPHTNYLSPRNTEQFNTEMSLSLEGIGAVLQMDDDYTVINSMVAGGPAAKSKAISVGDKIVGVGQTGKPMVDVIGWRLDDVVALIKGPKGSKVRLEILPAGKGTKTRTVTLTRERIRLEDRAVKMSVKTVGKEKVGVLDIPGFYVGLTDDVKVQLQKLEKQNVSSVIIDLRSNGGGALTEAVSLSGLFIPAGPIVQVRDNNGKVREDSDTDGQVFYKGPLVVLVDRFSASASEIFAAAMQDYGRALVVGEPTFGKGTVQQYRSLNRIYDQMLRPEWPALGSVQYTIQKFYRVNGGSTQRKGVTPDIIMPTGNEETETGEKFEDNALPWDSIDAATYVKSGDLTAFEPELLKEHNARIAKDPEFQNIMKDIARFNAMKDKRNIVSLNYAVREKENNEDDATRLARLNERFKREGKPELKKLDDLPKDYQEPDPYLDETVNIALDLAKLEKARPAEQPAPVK

sNlpI (soluble NlpI without its lipoprotein signal peptide) (E. coli), sequence (P0AFB1 20-294): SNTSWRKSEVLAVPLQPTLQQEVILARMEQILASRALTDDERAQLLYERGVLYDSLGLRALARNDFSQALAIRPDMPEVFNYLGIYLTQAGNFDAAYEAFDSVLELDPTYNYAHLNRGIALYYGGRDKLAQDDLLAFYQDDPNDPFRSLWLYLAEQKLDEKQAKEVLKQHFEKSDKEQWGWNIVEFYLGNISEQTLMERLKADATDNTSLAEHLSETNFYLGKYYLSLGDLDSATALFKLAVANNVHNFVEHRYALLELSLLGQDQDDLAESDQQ
sMepS-6×His-C (soluble MepS without its lipoprotein signal peptide, C-terminal His-tag) (E. coli), sequence (P0AFV4 28-188 limits assumed): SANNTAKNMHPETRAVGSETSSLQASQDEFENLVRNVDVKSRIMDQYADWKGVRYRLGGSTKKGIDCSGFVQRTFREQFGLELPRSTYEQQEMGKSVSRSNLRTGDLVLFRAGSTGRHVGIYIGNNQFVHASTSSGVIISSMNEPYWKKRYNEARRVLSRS

stoichiometry N (Prc per sNlpI (printed 2:2)) [1]: 1 | stoichiometry N (Prc per sNlpI (printed 2:2)) [2]: 1
Substance: Prc (full-length, C-terminal His-tag) (from UniProt P23865 23-682) (enzyme)

Kd [3]: 2.09 µM
Substance: sNlpI-Prc complex (from UniProt P0AFB1 20-294; P23865 23-682)

specific degradation activity of Prc against MepS with sNlpI-QM (nmol min^−1 per mg) [4]: 0.98
Substance: sNlpI-QM (D113A/E117A/D120/E124A quadruple mutant) (from UniProt P0AFB1 20-294) (natural protein)
